Assay results reported in US20220362394A1, “ANTI-BCMA ANTIBODY CONJUGATES” (SUTRO BIOPHARMA, INC., priority 2019, published 2022).

Experiments:
ARP-1 = experiment: Cell killing with drug-conjugated 2° antibody (internalization), ARP-1; type: cell-based, human; settings: 72 hrs; for Span (%): Conjugate P 2° antibody 20 nM; for EC50: Conjugate P 2° antibody (hemiasterlin, cleavable linker) 20 nM
Protocol: (§1) The internalization of the antibodies was evaluated by drugs conjugated to secondary antibodies in a cell killing assay on BCMA positive cells. BCMA-positive cell lines ARP-1 and U266B1 were used to screen for internalizing leads. Cells were washed twice with calcium and magnesium-free Dulbecco's phosphate-buffered saline (DPBS), harvested with Accutase® (Innovative Cell Technologies; San Diego, Calif.) and counted by the Vi-CELL Cell Viability Analyzers (Beckman Coulter, Brea, Calif.). A total of 12,500 cells in a volume of 25 microliter were seeded in a 384-well flat bottom white polystyrene plate (Greiner Bio-One, Monroe, N.C.) on the day of assay. Lead antibodies were formulated at 4× starting concentration in the cell culture medium and filtered through MultiScreenHTS 96-Well Filter Plates (Millipore; Billerica, Mass.). 12.5 μL of the serial diluted antibody (1:3 serial dilution starting from 100 nM) was added into treatment wells and 12.5 μL of an anti-human nanobody conjugated to according to Conjugate P (hemiasterlin via a cleavable linker) or according to Conjugate M (maytansinoid via a non-cleavable linker) was then added into each well at a fixed final concentration of 20 nM. […] Data was fitted with non-linear regression analysis, using a log(inhibitor) vs. response-variable slope, 4 parameter fit with GraphPad Prism (GraphPad v 5.0, Software; San Diego, Calif.). Data was expressed as relative cell viability (ATP content) % vs. dose of antibody.

U266B1 = experiment: Cell killing with drug-conjugated 2° antibody (internalization), U266B1; type: cell-based, human; settings: Conjugate P 2° antibody 20 nM, 72 hrs
Protocol: as §1

human BCMA-Fc = molecular target: T1, human BCMA-Fc (Homo sapiens, UniProt Q02223); experiment: Biacore kinetics, human BCMA-Fc; type: binding; settings: 25° C., 1-1 Langmuir model
T1 construct: purchased R&D Systems
T1 sequence (Q02223 1-54 limits assumed): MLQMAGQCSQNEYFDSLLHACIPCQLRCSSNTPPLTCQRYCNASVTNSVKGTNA
Protocol: Anti-Fab or anti-Fc polyclonal antibodies were immobilized onto a CM5 chip (GE Life Sciences) using amine coupling chemistry (from Amine Coupling Kit, GE Life Sciences). The immobilization steps were carried out at a flow rate of 25 μL/min in 1×HBS-EP+ buffer (GE Life Sciences; 10× Stock diluted before use). The sensor surfaces were activated for 7 min with a mixture of NHS (0.05 M) and EDC (0.2 M). The anti-Fab or anti-Fc antibodies were injected over all 4 flow cells at a concentration of 25 μg/ml in 10 mM sodium acetate, pH 4.5, for 7 min. Ethanolamine (1 M, pH 8.5) was injected for 7 min to block any remaining activated groups. An average of 12,000 response units (RU) of capture antibody was immobilized on each flow cell.
Off-rate and kinetic binding experiments were performed at 25° C. using 1×HBS-EP+ buffer. Test and control antibodies were injected over the anti-Fab or anti-Fc surface at concentrations of 5-10 μg/mL for 12 seconds at a flow rate of 10 μL/min on flow cells 2, 3 and 4, followed by a buffer wash for 30 seconds at the same flow rate. […]
The data was fit with the Biacore T200 Evaluation software, using a 1-1 Langmuir binding model. KD (affinity, nM) was determined as a ratio of the kinetic rate constants calculated from the fits of the association and dissociation phases.

B1: 10F4: chicken antibody, VH SEQ ID NO 203, VL SEQ ID NO 225 (antibody, V domains shown)
VH: AVTLDESGGGLQTPGGALSLVCKASGFTFSGYNMGWVRQAPGKGLEYVAGITYGTGSYTAYGAAVKGRATISRDNGQSTLRLQLNNLRAEDTATYYCARGGGLNSYGCSGANIDAWGHGTEVIVSS
VL: ALTQPSSVSANLGGTVKITCSGGGNYFGSYYYGWYQQKAPGSAPVTVIYNNNNRPSDIPSRFSGSTSGSTSTLTISGVRAEDEAVYFCGGFDSSTDAIFGAGTTLTVL
modifications: Synthetic 10F4, VH; Synthetic 10F4, VL
Span (%) (ARP-1): 87%
EC50 (ARP-1): 1 nM
EC50 (U266B1): 0.36 nM
Span (%) (U266B1): 81%

B2: 10E10: chicken antibody, VH SEQ ID NO 212, VL SEQ ID NO 234 (antibody, V domains shown)
VH: AVTLDESGGGLQTPGGGLSLVCKASGFTFSSYGMGWMRQAPGKGLEFVARINSGGSSYTDYGSAVKGRATISRDDGQSTVRLQLNNLRAEDTGIYYCTRGGGGASIDGWGHGTEVIVSS
VL: ALTQPSSVSANPGETVKITCSGGGNYAGSYYYGWYQQKSPGSAPLTVIYNSNNRPSDIPSRFSGSLSGSTGTLTITGVRAEDEAVYFCGGFDSSTDAIFGAGTTLTVL
modifications: Synthetic 10E10, VH; Synthetic 10E10, VL
Span (%) (ARP-1): 46%
EC50 (ARP-1): 3 nM
EC50 (U266B1): 2.5 nM
Span (%) (U266B1): 20%

B3: 10H1: chicken antibody, VH SEQ ID NO 211, VL SEQ ID NO 233 (antibody, V domains shown)
VH: AVTLDESGGGLQTPGGALSLVCKASGFTFSGYGMGWMRQAPGKGLEYVARINSAGSDTDYGAAVKGRATISRDNGQSTVRLQLNNLRAEDTATYFCTRGGGGASIDGWGHGTEVIVSS
VL: ALTQPSSVSANPGETVKITCSGGGNYYGSYYYGWYQQKAPGSAPVTVIYNNNNRPSNIPSRFSGSKSGSTGTLTITGVQAEDEAVYFCGGFDSSSDAIFGAGTTLTVL
modifications: Synthetic 10H1, VH; Synthetic 10H1, VL
Span (%) (ARP-1): 88%
EC50 (ARP-1): 0.86 nM
EC50 (U266B1): 0.29 nM
Span (%) (U266B1): 89%

B4: 9E12: chicken antibody, VH SEQ ID NO 209, VL SEQ ID NO 231 (antibody, V domains shown)
VH: AVTLDESGGGLQTPGGGLSLVCKASGFTFSDYGLGWMRQAPGKGLEYVARINSAGSGTYYGSAVDGRATISRDNGQSTVRLQLNNLRAEDTGTYYCTRGGGGASIDGWGHGTEVIVSS
VL: ALTQPSSVSANPGETVKITCSGGGSYYGSYYYGWYQQKSPGSAPVTLIYNNNNRPSDIPSRFSGSTSGSTGTLTITGVRAEDEAVYYCGSFDSSTDAIFGAGTTLTVL
modifications: Synthetic 9E12, VH; Synthetic 9E12, VL
Span (%) (ARP-1): 80%
EC50 (ARP-1): 1.2 nM
EC50 (U266B1): 1.4 nM
Span (%) (U266B1): 47%

B5: 9H1: chicken antibody, VH SEQ ID NO 210, VL SEQ ID NO 232 (antibody, V domains shown)
VH: AVTLDESGGGLQTPGGALSLVCKGSGFTFSDYGMGWMRQAPGKGLQYVARINSAGSDTNYGSAVKGRATISRDDGQSTVRLQLSSLRAEDTGIYYCTRGGGGASIDGWGHGTEVIVSS
VL: ALTQPSSVSANPGETVKITCSGGGSYYGSYYYGWYQQKSPGSAPVTLIYNNNNRPSDIPSRFSGSTSGSTGTLTITGVRAEDEAVYYCGSFDSSTDAIFGAGTTLTVL
modifications: Synthetic 9H1, VH; Synthetic 9H1, VL
Span (%) (ARP-1): 74%
EC50 (ARP-1): 1.3 nM
EC50 (U266B1): 1.1 nM
Span (%) (U266B1): 50%

B6: 9A5: chicken antibody, VH SEQ ID NO 208, VL SEQ ID NO 230 (antibody, V domains shown)
VH: AVTLDESGGGLQTPGGAVSLVCKASGFSISDYGMGWMRQAPGKGLQYVARIDHDGRYTDYGAVVKGRATISRDNGQSTVRLQLNNLRAEDTGTYYCTRGGGAASIDTWGHGTEVIVSS
VL: ALTQPSSVSANPGETVKITCSGGGNYVGGYYYGWYQQKAPGSALVTLIYNNNNRPSNIPSRFSGSTSGSTSTLTITGVRAEDEAVYFCGSFDSSTDAIFGAGTTLTVL
modifications: Synthetic 9A5, VH; Synthetic 9A5, VL
Span (%) (ARP-1): 93%
EC50 (ARP-1): 0.7 nM
EC50 (U266B1): 0.29 nM
Span (%) (U266B1): 84%

B7: 11D6: chicken antibody, VH SEQ ID NO 198, VL SEQ ID NO 220 (antibody, V domains shown)
VH: AVTLDESGGGLQTPGGTLSLVCKASGFTFSSFNMFWVRQAPGEGLEWVAYIRNDGRSTSYGPAVKGRATISRDNGQSTVRLQLNNLRAEDTGTYFCAKTTCVGSGGCIDTWGHGTEVIVSS
VL: ALTQPSSVSANPGETVEITCSGGNSDYGWFQQKSPGSAPVTVIYRNNQRPSDIPSRFSGSGSGSTNTLTITGVQAEDEAIYYCGNVDFTDDVFGAGTTLTVL
modifications: Synthetic 11D6, VH; Synthetic 11D6, VL
Span (%) (ARP-1): 83%
EC50 (ARP-1): 3.8 nM
ka (human BCMA-Fc): 1.02e+06 M⁻¹ s⁻¹
kd (human BCMA-Fc): 0.000318 s⁻¹
EC50 (U266B1): 1.1 nM
Span (%) (U266B1): 67%

B8: 9A8: chicken antibody, VH SEQ ID NO 196, VL SEQ ID NO 218 (antibody, V domains shown)
VH: AVTLDESGGGLQTPGGTLSLVCKASGFTFSSFNMFWVRQAPGKGLEWVAYIRNDGNSASYGPAVKGRATISRDNGQSTVRLQLNNLRAEDTATYYCAKTTCIGSGGCIDTWGHGTEVIVSS
VL: ALTQPSSVSANPGETVKITCSGGSSDYGWFQQKSPGSAPVTVIYSNNQRPSGIPSRFSGSKSGSTGTLTITGVQAEDEAIYYCANVDYTDDVFGAGTTLTVL
modifications: Synthetic 9A8, VH; Synthetic 9A8, VL
Span (%) (ARP-1): 82%
EC50 (ARP-1): 2.4 nM
EC50 (U266B1): 2.3 nM
Span (%) (U266B1): 42%

B9: 10G5: chicken antibody, VH SEQ ID NO 197, VL SEQ ID NO 219 (antibody, V domains shown)
VH: AVTLDESGGGLQTPGGVLSLVCKASGFTFSSFNMFWVRQAPGKGLEWVAYISNDGSSTSYGPAVKGRATISRDNGQSTVRLQLNNLRAEDTATYFCAKTTCIGSGGCIDTWGHGTEVIVSS
VL: ALTQPSSVSANPGETVKITCSGGNYDYGWYQQKSPGSAPVTLIYYNNKRPSDIPSRFSGSKSGSTGTLTITGVQAEDEAIYYCANVDSTDDVFGAGTTLTVL
modifications: Synthetic 10G5, VH; Synthetic 10G5, VL
Span (%) (ARP-1): 82%
EC50 (ARP-1): 3.5 nM
EC50 (U266B1): 1.9 nM
Span (%) (U266B1): 63%
